Experimental data: publication PMC6588604

Biological target: NLuc-GhBOP1 (Gossypium hirsutum)

CLuc-GhTGA3 (natural protein)
GUS staining intensity from GhPR1pro:GUS in tobacco leaves: 35S:GhTGA3 + 35S:GhBOP1 + reporter against 35S:GhTGA3 + reporter: 2 fold
